Results on two molecules are retold here after paper PMC5018360 (2017).

The experiment concerns the target T1, MCL-1 (Mus musculus, UniProt P97287).
T1 chain: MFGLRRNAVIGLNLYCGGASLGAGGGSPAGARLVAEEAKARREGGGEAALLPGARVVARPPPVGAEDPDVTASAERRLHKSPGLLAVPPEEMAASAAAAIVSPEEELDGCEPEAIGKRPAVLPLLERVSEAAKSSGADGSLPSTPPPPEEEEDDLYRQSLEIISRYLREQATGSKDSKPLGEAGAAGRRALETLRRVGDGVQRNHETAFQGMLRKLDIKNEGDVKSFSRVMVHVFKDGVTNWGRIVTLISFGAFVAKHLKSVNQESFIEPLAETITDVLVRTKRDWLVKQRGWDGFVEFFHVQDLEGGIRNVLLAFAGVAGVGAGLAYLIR
The experiment can be described thus: surface plasmon resonance. (In general: Surface plasmon resonance follows binding to a sensor surface in real time, without labels.)

Molecule EDIIRNIARHLAQVGDSMDRSI [BID BH3 peptide] displayed a Kd of 134 nM.
In turn, GRLAEVCTVLLRLGDELEQIRPSVY [BOK BH3 peptide BH3] yielded a Kd of 3440 nM.

By Kd is commonly meant the free concentration of one partner at which half of the binding sites on the other are occupied at equilibrium, for simple one-to-one binding. A low value points to higher affinity.
